# Assay results as given in paper PMC12052123, “Investigating the quaternary structure of a homomultimeric catechol 1,2-dioxygenase: An integrative structural biology study” (PLOS One, 2025).
# B1: catechol 1,2-dioxygenase from Stutzerimonas frequens GOM2 (enzyme, UniProt A0ABX6XR78 1-312, looked up)
# chain: MTVKISHTNDVQQFFKEASGFNNDAGSSRLKTVINRVLADTARIIEDLEITQDEFWKAVDYINRLGGRHEAGLLVAGLGLEHYLDLLQDAKDEQEGLVGGTPRTIEGPLYVAGAPIAEGEVRMDDDSEEGVATTMFLQGRVTGPDGKPLAGATVDLWHANTKGNYSYFDKSQSEYNLRRRIVTDENGYYRARSIVPSGYGCSPDGPTQEVLDMLGRHGQRPAHIHFFISAPGHRHLTTQINLAGDKYLWDDFAYATRDGLVGDIRFIDDAEAARARGVQGRFAEVDFDFQLQKAPAPQAEQRSKRPRALQQA
# notes: catechol 1,2-dioxygenase encoded by the CatA gene of Stutzerimonas frequens GOM2 (Pseudomonas stutzeri GOM2); regions are labelled up to residue 312; Non-heme Fe3+ enzyme; Number of copies depends on the sample: dimer when non-lyophilized; dimer, tetramer, (hexamer), octamer and >20-mer after lyophilization and reconstitution; also called SfC12DO; PsC12DO; source: used non-lyophilized, or …
# Biological target: the molecule itself
# Experiment: native gel or EMSA; semi-native PAGE (8%), Tris-Gly buffer system without detergent or denaturing agents, 100 V, 18 °C, Coomassie; lyophilized and reconstituted SfC12DO
protein,measurement,value
B1,stoichiometry N,6
